From publication PMC8607333, “Real-time kinetic studies of Mycobacterium tuberculosis LexA–DNA interaction” (Bioscience Reports, 2021)

T1: LexA RKG/AAA (Mycobacterium tuberculosis, UniProt P9WHR7 1-236, R75A;K76A;G77A)
T1 sequence: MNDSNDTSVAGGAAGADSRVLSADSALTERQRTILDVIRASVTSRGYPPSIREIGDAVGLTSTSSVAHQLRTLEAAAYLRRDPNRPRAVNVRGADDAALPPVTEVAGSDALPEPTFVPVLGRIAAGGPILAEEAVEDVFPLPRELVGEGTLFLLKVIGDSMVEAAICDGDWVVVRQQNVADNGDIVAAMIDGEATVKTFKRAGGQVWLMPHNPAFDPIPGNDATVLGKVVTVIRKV


Legend:
[1] = target: the molecule itself; assay: SEC
[2] = target: T1, LexA RKG/AAA; assay: BLI; pH 7.5; association up to 600 s; BLI: 10 mM HEPES pH 7.5, 50 mM NaCl, 25 C (pH 4 buffer not stated), 1:1 global fit; […]; settings: protein: recombinant; tags: 6xHis; chain copies: 2; label: 5' biotin on strand 1; blunt
[3] = target: T1, LexA RKG/AAA; assay: ANS extrinsic fluorescence quench; ANS, 1:2 ratio; no significant quench; BLI: 10 mM HEPES pH 7.5, 50 mM NaCl, 25 C (pH 4 buffer not stated), 1:1 global fit; […]; settings: protein: recombinant; tags: 6xHis; chain copies: 2; blunt
[4] = target: T1, LexA RKG/AAA; assay: EMSA; 128 nM protein; BLI: 10 mM HEPES pH 7.5, 50 mM NaCl, 25 C (pH 4 buffer not stated), 1:1 global fit; […]; settings: protein: recombinant; tags: 6xHis; chain copies: 2; label: 32P end label, no biotin; blunt

Binder | stoichiometry N [1] | other results
Mycobacterium tuberculosis LexA, wild type (natural protein, also called Mtb LexA; WT Mtb LexA) MNDSNDTSVAGGAAGADSRVLSADSALTERQRTILDVIRASVTSRGYPPSIREIGDAVGLTSTSSVAHQLRTLERKGYLRRDPNRPRAVNVRGADDAALPPVTEVAGSDALPEPTFVPVLGRIAAGGPILAEEAVEDVFPLPRELVGEGTLFLLKVIGDSMVEAAICDGDWVVVRQQNVADNGDIVAAMIDGEATVKTFKRAGGQVWLMPHNPAFDPIPGNDATVLGKVVTVIRKV | 2 | 
Mtb LexA RKG/AAA (natural protein, also called RKG/AAA mutant; RKG mutant) MNDSNDTSVAGGAAGADSRVLSADSALTERQRTILDVIRASVTSRGYPPSIREIGDAVGLTSTSSVAHQLRTLEAAAYLRRDPNRPRAVNVRGADDAALPPVTEVAGSDALPEPTFVPVLGRIAAGGPILAEEAVEDVFPLPRELVGEGTLFLLKVIGDSMVEAAICDGDWVVVRQQNVADNGDIVAAMIDGEATVKTFKRAGGQVWLMPHNPAFDPIPGNDATVLGKVVTVIRKV | 2 | 
Mtb LexAΔ18aa (natural protein, also called ∆18aa variant; LexA18aaΔ) MNDSNDTSVAGGAAGADSRVLSADSALTERQRTILDVIRASVTSRGYPPSIREIGDAVGLTSTSSVAHQLRTLERKGYLRRDPNRPRAVNVRGPEPTFVPVLGRIAAGGPILAEEAVEDVFPLPRELVGEGTLFLLKVIGDSMVEAAICDGDWVVVRQQNVADNGDIVAAMIDGEATVKTFKRAGGQVWLMPHNPAFDPIPGNDATVLGKVVTVIRKV | 2 | 
dnaE2_44mer SOS box, biotinylated (dsDNA) DNA 1: ACAACTGCGCTGTATCGAACAATTGTTCGATATACTGTGGAATG DNA 2: CATTCCACAGTATATCGAACAATTGTTCGATACAGCGCAGTTGT |  | binding result [2]: no binding
dnaE2 44mer SOS box, non-biotinylated (dsDNA) DNA 1: ACAACTGCGCTGTATCGAACAATTGTTCGATATACTGTGGAATG DNA 2: CATTCCACAGTATATCGAACAATTGTTCGATACAGCGCAGTTGT |  | binding result [3]: no binding
dnaE2 44mer SOS box, 32P end-labeled (dsDNA) DNA 1: ACAACTGCGCTGTATCGAACAATTGTTCGATATACTGTGGAATG DNA 2: CATTCCACAGTATATCGAACAATTGTTCGATACAGCGCAGTTGT |  | binding result [4]: no binding
Mtb LexAΔ24aa (domain or fragment, also called ∆24aa variant; LexA∆24aa) SALTERQRTILDVIRASVTSRGYPPSIREIGDAVGLTSTSSVAHQLRTLERKGYLRRDPNRPRAVNVRGADDAALPPVTEVAGSDALPEPTFVPVLGRIAAGGPILAEEAVEDVFPLPRELVGEGTLFLLKVIGDSMVEAAICDGDWVVVRQQNVADNGDIVAAMIDGEATVKTFKRAGGQVWLMPHNPAFDPIPGNDATVLGKVVTVIRKV | 2 | 
